The source of these data is US12351833B2, “Unspecific peroxygenase enzyme variants for selective fatty acid epoxidation or hydroxylation” (CONSEJO SUPERIOR DE INVESTIGACIONES CIENTÍFICAS (CSIC), priority 2019, dated 2025).

Substitutions are numbered along the chain they refer to. Names and notes keep the numbering of the source.

Holding throughout (format): biochemical
A short description of series [1]: Reaction of UPO enzyme with oleic acid and H2O2, products analysed by GC-MS. The following applies: for Conversion of the substrate (oleic acid) into products / selectivity towards only epoxidation (ratio between only epoxides and other oxygenation products) / share of products that are only epoxides / share of products that are other (hydroxylated) epoxides / epoxidation activity / epoxidized species detected (words): enzyme 0.2 μM, oleic acid 100 μM, H2O2 2,500 μM; for Conversion of the substrate (oleic acid) into products: 30° C., 50 mM phosphate pH 5.5, 30 min, 20% acetone; for selectivity towards only epoxidation (ratio between only epoxides and other oxygenation products) / share of products that are only epoxides / share of products that are other (hydroxylated) epoxides / epoxidation activity / epoxidized species detected (words): pH 5.5, 30° C., 30 min. The protocol: The rMroUPO (0.2 μM) was incubated with oleic acid (100 μM) and H2O2 (2,500 μM) at 30° C. in 50 mM phosphate, pH 5.5, for 30 min. Oleic acid had been previously dissolved in acetone so that the final acetone concentration attained 20% (v/v) in the embodiment. After the incubation time, the products were recovered by liquid-liquid extraction with t-butyl-methyl-ether. The organic solvent was removed under N2 current. N,O-Bis-(trimethylsilyl)trifluoroacetamide was employed to prepare the trimethylsilyl derivatives of the compounds to be separated by gas chromatography and identified by mass spectrometry.
(§1) Chromatographic analyses were carried out in a gas chromatograph coupled to a mass-spectrometry detector. The column used was a fused-silica DB-5HT capillary column (30 m×0.25 mm internal diameter×0.1 μm film thickness). Oven was heated from 120° C. (1 min) to 300° C. (5 min) at 5° C.·min. Injection was performed at 300° C. and transfer line was maintained at 300° C. Compounds were identified by comparison of their mass spectra with those of authentic standards and those from the NIST and Wiley libraries as well as by mass fragmentography. Quantification of the products was carried out by integrating the total ion peak areas, using external standard curves of the same or closely related compounds.
Reactions with oleic acid and identification and quantification of the products were conducted as explained in Example 3.
The rMroUPO I153F/S156F mutated variant (SEQ ID NO: 3), in which isoleucine 153 and serine 156 were both replaced by phenylalanine residues, was constructed by site-directed mutagenesis, in a PCR reaction in which the following oligos—complementary to the region of the gene to be mutated, but bearing the desired mismatches—were used as primers: 5′-[…]-3′ (SEQ ID NO: 8), along with its reverse complementary counterpart. PCR reaction and sequencing of the mutated variant were carried out as described in Example 4. Expression, purification of the enzyme, reactions with oleic acid and GC-MS identification and quantification of the products were conducted as in Example 3.

A short description of series [2]: Reaction of UPO enzyme with α-linolenic acid and H2O2, products analysed by GC-MS. The following applies: for Conversion of α-linolenic acid: 30° C., 50 mM phosphate pH 5.5, 30 min. As for the experimental part: as §1
Reactions were performed in an embodiment consisting of rMroUPO (0.2 μM), incubated with α-linolenic acid (100 μM) and H2O2 (1,250 μM) at 30° C., in 50 mM phosphate, pH 5.5, for 30 min. Extraction and separation of the reaction products was carried out as described in Example 3. Since no available commercial standards of epoxidized α-linolenic acid were available, they were chemically synthesised as follows: a solution of peracetic acid (1.8 mmol, 3.6 equiv) and NaOAc (0.7 mmol; 1.4 equiv) was added to α-linolenic acid (0.5 mmol) using a syringe pump at 0° C. for 1 h. The mixture was stirred at 0° C. for an additional h. Products were recovered by liquid-liquid extraction with t-butyl-methyl-ether, resulting in a mixture of mono- and di-epoxides. Identification of the compounds was made by comparison of the mass spectra with those of the synthesised standards and by mass fragmentography. Quantification was carried out as detailed in Example 3.
Reactions and analyses of the products were performed as in Example 8. FIG. 7 illustrates a chromatogram of the reaction products, among which single epoxides, di-epoxides and other epoxidized derivatives. Conversion of the substrate attained 97%, of which 92% (of which 88% are di-epoxides) represented only epoxides and a mere 8% other epoxide derivatives. Therefore, the selectivity towards only epoxidation reached 11.50.

Series [3] in a line: Reaction of UPO enzyme with linoleic acid and H2O2, products analysed by GC-MS. The settings on record: for Conversion of linoleic acid / selectivity towards only epoxidation (ratio between only epoxides and other oxygenation products) / share of products that are hydroxylated epoxides / share of products that are only epoxides: enzyme 0.6 μM, linoleic acid 100 μM, H2O2 1,250 μM; for Conversion of linoleic acid: 30° C., 50 mM phosphate pH 5.5, 30 min, 20% acetone; for selectivity towards only epoxidation (ratio between only epoxides and other oxygenation products) / share of products that are hydroxylated epoxides / share of products that are only epoxides: pH 5.5, 30° C., 30 min. As for the experimental part:
as §1
An embodiment was designed in which rMroUPO (0.6 μM) was incubated with linoleic acid (100 μM, previously dissolved in acetone so that the final acetone concentration in the embodiment was of 20%) and H2O2 (1,250 μM) at 30° C. in 50 mM phosphate, pH 5.5, for 30 min. Identification and quantification of the products was conducted as detailed in Example 3.
Reactions were performed as in Example 6. Identification and quantification of the products is described in Example 3.

The mark [4] stands for this setting: enzyme 0.2 μM, α-linolenic acid 100 μM, H2O2 1,250 μM.
Where [5] appears, read: α-linolenic acid 100 μM, enzyme 0.2 μM, H2O2 1,250 μM, pH 5.5, 30° C., 30 min.

B1: rMroUPO: recombinant Marasmius rotula unspecific peroxygenase, SEQ ID NO: 1, encoded by SEQ ID NO: 9, expressed in E. coli (protein)
chain: SAHPWKAPGPNDSRGPCPGLNTLANHGFLPRNGRNISVPMIVKAGFEGYNVQSDILILAGKIGMLTSREADTISLEDLKLHGTIEHDASLSREDVAIGDNLHFNEAIFTTLANSNPGADVYNISSAAQVQHDRLADSLARNPNVTNTDLTATIRSSESAFFLTVMSAGDPLRGEAPKKFVNVFFREERMPIKEGWKRSTTPITIPLLGPIIERITELSDWKPTGDNCGAIVLSPEL
modifications: Recombinant Marasmius rotula unspecific peroxygenase enzyme, rMroUPO
In the case of B1, in series [1], the “Conversion of the substrate (oleic acid) into products” value is 94%; the “selectivity towards only epoxidation (ratio between only epoxides and other oxygenation products)” value came to 0.67; the “share of products that are only epoxides” value amounted to 40%; the “share of products that are other (hydroxylated) epoxides” value was 57%. In series [2] (setting [4]), the “Conversion of α-linolenic acid” value stood at 98%. In series [2] (setting [5]), the “selectivity towards only epoxidation (ratio between only epoxides and other oxygenation products)” value was found to be 0.79; the “share of products that are only epoxides” value is recorded as 44%; the “share of products that are other epoxides / other epoxide derivatives” value was 56%. Moreover, in series [3], the “Conversion of linoleic acid” value is 98%; the “selectivity towards only epoxidation (ratio between only epoxides and other oxygenation products)” value was 0.27; the “share of products that are hydroxylated epoxides” value stood at 79%; the “share of products that are only epoxides” value is on record as 21%.

B2: rMroUPO I153T mutated variant: rMroUPO in which isoleucine 153 was replaced by threonine (SEQ ID NO: 2) (protein)
chain: B1 chain with I153T
modifications: Variant of the invention which comprises the SEQ ID NO 1 and the amino acid substitution I153T
Turning to B2, in series [1], the “Conversion of the substrate (oleic acid) into products” value was 85%; the “selectivity towards only epoxidation (ratio between only epoxides and other oxygenation products)” value turned out to be 2.67; the “share of products that are only epoxides” value stood at 72%; the “share of products that are other (hydroxylated) epoxides” value came out at 17%. In series [1] (oleic acid), the “increase of epoxidation selectivity relative to rMroUPO” value is reported as 4 fold; the “ratio between stearic acid epoxide and its additionally hydroxylated derivatives (words, vs MroUPO)” value is on record as “increased”. Further, in series [2] (setting [4]), the “Conversion of α-linolenic acid” value came to 97%. Further, in series [2] (α-linolenic acid), the “increase of epoxidation selectivity relative to rMroUPO” value is reported as 14.6 fold. In addition, in series [2] (setting [5]), the “selectivity towards only epoxidation (ratio between only epoxides and other oxygenation products)” value stood at 11.50; the “share of di-epoxides among only epoxides” value came out at 88%; the “share of products that are only epoxides” value worked out at 92%; the “share of products that are other epoxides / other epoxide derivatives” value is given as 8%. Besides, in series [3], the “Conversion of linoleic acid” value is 93%; the “selectivity towards only epoxidation (ratio between only epoxides and other oxygenation products)” value is on record as 0.72; the “share of products that are hydroxylated epoxides” value stood at 58%; the “share of products that are only epoxides” value amounted to 42%. In addition, the “increase of epoxidation selectivity relative to rMroUPO” value in series [3] (linoleic acid) came to 2.7 fold.

B3: rMroUPO I153F/S156F mutated variant: rMroUPO in which isoleucine 153 and serine 156 were both replaced by phenylalanine (SEQ ID NO: 3) (protein)
chain: B1 chain with I153F, S156F
modifications: Variant of the invention which comprises the SEQ ID NO 1 and the amino acid substitutions I153F and S156F
Take B3: the “epoxidation activity / epoxidized species detected (words)” value in series [1] (listed as I153F/S156F mutated variant) is “completely abolishes the epoxidation activity”; in series [1] (listed as I153F/S156F variant), “completely abolished the MroUPO ability to epoxidize oleic acid”; in series [1] (listed as MroUPO I153F/S156F mutated variant) it was “No traces of epoxidized species were detected”. The “selectivity towards hydroxylation” value in series [1] (oleic acid, products restricted to ω-1 and ω hydroxylated, keto and carboxylic species) is “total towards hydroxylation”.
